Experimental data published in patent US20250011468A1 (Novo Nordisk, published 2025).
Substitutions are numbered along the chain they refer to.

How the values were obtained:
Test in all cases: cell-based or functional assay
[1] = target: T1, human plasma-derived FIXa (Haematologic Technologies Inc) (human, UniProt P00740 47-191; P00740 227-461)
[2] = target: T1, human plasma-derived FIXa (Haematologic …); remark: listed apart in the source
[3] = target: T1, human plasma-derived FIXa (Haematologic …); remark: listed apart in the source
[4] = target: T1, human plasma-derived FIXa (Haematologic …); remark: listed apart in the source

T1 sequence (P00740 47-191, chain 1 of 2): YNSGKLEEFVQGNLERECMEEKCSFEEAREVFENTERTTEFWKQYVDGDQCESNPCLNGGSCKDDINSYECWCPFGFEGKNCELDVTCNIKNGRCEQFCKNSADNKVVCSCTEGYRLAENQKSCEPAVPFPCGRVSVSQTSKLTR
T1 sequence (P00740 227-461, chain 2 of 2): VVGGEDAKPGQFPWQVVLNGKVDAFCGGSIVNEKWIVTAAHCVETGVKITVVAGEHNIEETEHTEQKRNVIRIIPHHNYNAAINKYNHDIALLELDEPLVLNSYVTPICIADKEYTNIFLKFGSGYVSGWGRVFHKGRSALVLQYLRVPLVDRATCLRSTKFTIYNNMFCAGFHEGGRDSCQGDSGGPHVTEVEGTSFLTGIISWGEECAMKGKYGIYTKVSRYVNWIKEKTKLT

B1: mAb1-4071 (antibody, V domains shown)
VH: EVQLVQSGAEVKKPGESLRISCKGSGYSFTPYWIGWVRQMPGKGLEWMGMIDPSDSYTDYGPSFRGHVTISADKSISTAYLQWSSLKASDTAMYYCARVRIREGAFDIWGQGTMVTVSS
VL: DIVMTQSPLSLPVTPGEPASISCRSSQRLLHSTGYNYLNWYLQKPGQSPQLLIYLGSRRASGVPDRFSGSGSGTDFTLKISRVEAEDVGVYYCMQALHIPYTFGQGTKLEIK
FXa generation rate at 3.2 nM mAb [1]: 43 pM/min | FXa generation rate at 6.3 nM mAb [1]: 65 pM/min | FXa generation rate at 12.5 nM mAb [1]: 97 pM/min | FXa generation rate at 25 nM mAb [1]: 131 pM/min | FXa generation rate at 50 nM mAb [1]: 173 pM/min | FXa generation rate at 100 nM mAb [1]: 198 pM/min | FXa generation rate at 200 nM mAb [1]: 208 pM/min | Peak stimulatory activity relative to 224F3 [2]: 10.4 fold relative to 224F3

B2: mAb4-7758 (bispecific, mAb1-6584/mAb1-6097) (bispecific antibody, V domains shown)
VH 1: B1 VH with T30R, E103A
VL 1: B1 VL with R28S, G34W, S57K, R58N, A96V
VH 2: EVQLVESGGGLVKPGGSLRLSCAASGFTFSNAHMNWVRQAPGKGLEWVGRIKRKTDGGTTDYAAPVKGRFTISRDDSKNTLYLQMNSLKTEDTAVYYCTTDGIAVAGPLRVYWGQGTLVTVSS
VL 2: not shown
Maximum stimulation (fold), at 633 nM BiAb [3]: 2810 fold

B3: mAb4-5347 (monovalent one-armed version of mAb1-6582) (antibody, V domains shown)
VH: B1 VH with T30R, R65E, E103A
VL: B1 VL with R28S, G34W, S57K, R58N, A96V
Stimulation index at 800 nM OA antibody [4]: 692 fold

B4: mAb4-5342 (monovalent one-armed version of mAb1-6586) (antibody, V domains shown)
VH: B1 VH with S28R, P31S, S54T, R65H, V99M, R102M, E103S
VL: B1 VL with R28S, G34W, S57K, R58N, A96V
Stimulation index at 800 nM OA antibody [4]: 94 fold

B5: mAb4-7756 (bispecific, mAb1-6584/mAb1-6723) (bispecific antibody, V domains shown)
VH 1: B1 VH with T30R, E103A
VL 1: B1 VL with R28S, G34W, S57K, R58N, A96V
VH 2: EVQLVQSGAEVKKPGESLRISCKGSGYSFTTSWIVWVRQMPGKGLEWMGMIDPSDSFTSYSPSFQGHVTISADKSISTAYLQWSSLKASDTAMYYCARLHYYHSEEFDVWGQGTLVTVSS
VL 2: EIVLTQSPGTLSLSPGERATLSCRASQSVSSSYLAWYQQKPGQAPRLLIYGASSRARGIPDRFSGSGSGTDFTLTISRLEPEDFAVYYCQQFGSSRLFTFGQGTKLEIK
Maximum stimulation (fold), at 1520 nM BiAb [3]: 2600 fold

B6: mAb4-5375 (monovalent one-armed version of mAb1-6609) (antibody, V domains shown)
VH: B1 VH with S28R, S54T, E103S
VL: B1 VL with R28S, G34W, R58N
Stimulation index at 800 nM OA antibody [4]: 94 fold

B7: mAb4-3461 (monovalent one-armed version of mAb1-5754) (antibody, V domains shown)
VH: B1 VH with T30R, R65E, E103A
VL: B1 VL with S57K, R58N, A96V
Stimulation index at 1478 nM OA antibody [4]: 615 fold

B8: mAb4-5337 (monovalent one-armed version of mAb1-6566) (antibody, V domains shown)
VH: B1 VH with T30R, R65E, E103A
VL: B1 VL with R28S, S32R, G34W, S57R, R58N, A96V
Stimulation index at 204 nM OA antibody [4]: 690 fold

B9: mAb4-7762 (bispecific, mAb1-6584/mAb1-6738) (bispecific antibody, V domains shown)
VH 1: B1 VH with T30R, E103A
VL 1: B1 VL with R28S, G34W, S57K, R58N, A96V
VH 2: B2 VH 2 with N31D, H33W, N86D
VL 2: not shown
Maximum stimulation (fold), at 109 nM BiAb [3]: 3190 fold

B10: mAb4-5357 (monovalent one-armed version of mAb1-6590) (antibody, V domains shown)
VH: B1 VH with T30R, R65E, E103A
VL: B1 VL with R28S, G34W, A96V
Stimulation index at 800 nM OA antibody [4]: 1290 fold

B11: mAb4-5344 (monovalent one-armed version of mAb1-6592) (antibody, V domains shown)
VH: B1 VH with T30R, E103A
VL: B1 VL with R28S, G34W, A96V
Stimulation index at 800 nM OA antibody [4]: 916 fold

B12: mAb4-3503 (monovalent one-armed version of mAb1-5796) (antibody, V domains shown)
VH: B1 VH with T30R, R65H, R102M, E103S
VL: B1 VL with R28S, G34W, S57K, R58N, A96V
Stimulation index at 900 nM OA antibody [4]: 239 fold

B13: mAb4-3486 (monovalent one-armed version of mAb1-5781) (antibody, V domains shown)
VH: B1 VH with T30K, E103A
VL: B1 VL with R28S, S32R, G34W, S57R, R58N, A96V
Stimulation index at 564 nM OA antibody [4]: 1220 fold

B14: mAb4-5368 (monovalent one-armed version of mAb1-6606) (antibody, V domains shown)
VH: B1 VH with T30R, R65E, E103A
VL: B1 VL with R28S, G34W, R58N
Stimulation index at 800 nM OA antibody [4]: 133 fold

B15: mAb4-5355 (monovalent one-armed version of mAb1-6584) (antibody, V domains shown)
VH: B1 VH with T30R, E103A
VL: B1 VL with R28S, G34W, S57K, R58N, A96V
Stimulation index at 800 nM OA antibody [4]: 580 fold

B16: mAb4-3490 (monovalent one-armed version of mAb1-5783) (antibody, V domains shown)
VH: B1 VH with T30R, E103A
VL: B1 VL with R28S, S32R, G34W, S57R, R58N, A96V
Stimulation index at 264 nM OA antibody [4]: 1040 fold

B17: mAb4-7789 (bispecific, mAb1-6584/mAb1-6463) (bispecific antibody, V domains shown)
VH 1: B1 VH with T30R, E103A
VL 1: B1 VL with R28S, G34W, S57K, R58N, A96V
VH 2: not shown
VL 2: not shown
Maximum stimulation (fold), at 253 nM BiAb [3]: 3530 fold

B18: mAb1-4857 (antibody, V domains shown)
VH: EVQLVESGGGLVQPGRSLKLSCAASGFTFDDYAMHWVRQVPGKGLEWVSGISWRGDIIGYVDSVKGRFTISRDNAKNSLYLQLNSLRAEDTALYYCVKSYGSGSFYNAFDSWGQGTLVTVSS
VL: DIQMTQSPSTLSASAGDRVTITCRASQSISSWLAWYQQKPGKAPKFLIYKASRLERGVPSRFSGSGSGTEFSLTISSLQPDDFATYYCLEYSSYIRTFGQGTKVEIK
FXa generation rate at 3.2 nM mAb [1]: 302 pM/min | FXa generation rate at 6.3 nM mAb [1]: 491 pM/min | FXa generation rate at 12.5 nM mAb [1]: 685 pM/min | FXa generation rate at 25 nM mAb [1]: 1000 pM/min | FXa generation rate at 50 nM mAb [1]: 1190 pM/min | FXa generation rate at 100 nM mAb [1]: 1260 pM/min | FXa generation rate at 200 nM mAb [1]: 1300 pM/min | Peak stimulatory activity relative to 224F3 [2]: 66.5 fold relative to 224F3

B19: mAb4-7786 (bispecific, mAb1-6081/mAb1-6463) (bispecific antibody, V domains shown)
VH 1: B18 VH with D30H
VL 1: B18 VL with E55D
VH 2: not shown
VL 2: not shown
Maximum stimulation (fold), at 4060 nM BiAb [3]: 1270 fold

B20: mAb4-7687 (bispecific, mAb1-6037/mAb1-6723) (bispecific antibody, V domains shown)
VH 1: B18 VH
VL 1: B18 VL with S31E, E55D
VH 2: B5 VH 2
VL 2: B5 VL 2
Maximum stimulation (fold), at 1650 nM BiAb [3]: 2490 fold

B21: mAb5-0057 (bispecific, mAb1-8768/mAb1-6723) (bispecific antibody, V domains shown)
VH 1: B18 VH with D30H
VL 1: B18 VL with E55D, V58T
VH 2: B5 VH 2
VL 2: B5 VL 2
Maximum stimulation (fold), at 1218 nM BiAb [3]: 10800 fold

B22: mAb4-5925 (bispecific, mAb1-4857/mAb1-6723) (bispecific antibody, V domains shown)
VH 1: B18 VH
VL 1: B18 VL
VH 2: B5 VH 2
VL 2: B5 VL 2
Maximum stimulation (fold), at 533 nM BiAb [3]: 5200 fold

B23: mAb5-1409 (bispecific, mAb1-8768/mAb1-7503) (bispecific antibody, V domains shown)
VH 1: B18 VH with D30H
VL 1: B18 VL with E55D, V58T
VH 2: B5 VH 2
VL 2: B5 VL 2 with A56T, Q102E
Maximum stimulation (fold), at 1115 nM BiAb [3]: 11000 fold

B24: mAb1-4707 (antibody, V domains shown)
VH: EVQLVESGGGLVQPGRSLRLSCAASGFTFGDYAMHWVRQAPGKGLEWVSGISWVSGSIGYARSVKGRFTISRDNAKNSLYLQMNSLRAEDTALYYCAKGQYDEDAGMDVWGQGTTVTVSS
VL: DIQMTQSPSSLSASVGDRVTITCRASQSIRSYLNWYQQKPGKAPKLLIYAASSLQSGVPSRFSGSGSGTDFTLTISSLQPEDFATYYCQQGYPTWTFGGGTKVEIK
FXa generation rate at 3.2 nM mAb [1]: 662 pM/min | FXa generation rate at 6.3 nM mAb [1]: 714 pM/min | FXa generation rate at 12.5 nM mAb [1]: 697 pM/min | FXa generation rate at 25 nM mAb [1]: 685 pM/min | FXa generation rate at 50 nM mAb [1]: 629 pM/min | FXa generation rate at 100 nM mAb [1]: 581 pM/min | FXa generation rate at 200 nM mAb [1]: 586 pM/min | Peak stimulatory activity relative to 224F3 [2]: 35.9 fold relative to 224F3

B25: mAb1-4763 (antibody, V domains shown)
VH: B24 VH with V54N, R62K
VL: B24 VL with S28W, R30S, Q55P
FXa generation rate at 3.2 nM mAb [1]: 370 pM/min | FXa generation rate at 6.3 nM mAb [1]: 390 pM/min | FXa generation rate at 12.5 nM mAb [1]: 381 pM/min | FXa generation rate at 25 nM mAb [1]: 373 pM/min | FXa generation rate at 50 nM mAb [1]: 369 pM/min | FXa generation rate at 100 nM mAb [1]: 375 pM/min | FXa generation rate at 200 nM mAb [1]: 401 pM/min | Peak stimulatory activity relative to 224F3 [2]: 20 fold relative to 224F3
